Source: paper PMC7906951
Substitutions are numbered along the chain they refer to.

T1: Card1 (Tresu_2185, Cad1) (Treponema succinifaciens, UniProt F2NWD3 1-372)
T1 sequence: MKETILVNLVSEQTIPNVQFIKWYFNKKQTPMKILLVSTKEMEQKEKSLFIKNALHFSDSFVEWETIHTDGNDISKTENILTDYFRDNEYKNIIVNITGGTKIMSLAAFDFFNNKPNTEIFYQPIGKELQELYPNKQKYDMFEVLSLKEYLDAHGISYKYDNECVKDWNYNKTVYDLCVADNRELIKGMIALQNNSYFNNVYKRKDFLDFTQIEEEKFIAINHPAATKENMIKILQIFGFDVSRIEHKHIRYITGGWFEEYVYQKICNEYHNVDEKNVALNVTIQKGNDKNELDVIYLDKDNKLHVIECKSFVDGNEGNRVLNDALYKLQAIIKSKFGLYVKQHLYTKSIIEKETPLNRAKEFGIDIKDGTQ

T2: Card1 D294N (Treponema succinifaciens, UniProt F2NWD3 1-372, D294N)
T2 sequence: T1 sequence with D294N


Columns and labels:
Card1 (Tresu_2185, Cad1) = biological target: T1, Card1 (Tresu_2185, Cad1); assay: ITC
Card1 D294N = biological target: T2, Card1 D294N; assay: crystal structure

Binder | Kd (Card1 (Tresu_2185, Cad1)) | binding result (Card1 D294N)
AAAA (ssRNA, cyclic 3'-5' oligoadenylate; no free ends) [cA4 (cyclic tetraadenylate)] | 15 nM | binds
AAAAAA (ssRNA, cyclic 3'-5' oligoadenylate; no free ends) [cA6 (cyclic hexaadenylate)] | 78 nM | 
